Data reported in the supplement of paper PMC9170038.

Tested on: K4 kissing-loop RNA reporter
Test: apparent KD of K4 kissing-loop reporter; higher = weaker reporter binding
Details: Eterna round: R107
Method: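 RNA-MaP round R107: designed RNA switches with theophylline, tryptophan, arginine or FMN aptamers are transcribed on-chip within common flanks. They are titrated with a labelled K4 kissing-loop RNA reporter in RNA-MaP buffer (100 mM Tris pH 7.5, 80 mM KCl, 4 mM MgCl2), without ligand or with the indicated ligand. Median apparent KD per design.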

[1] = input ligand: theophylline 20 uM
[2] = input ligand: tryptophan 2.4 mM
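Further: bound reporter read as fluorescence of individual clusters on recovered sequencing chips by microscopy, with normalized cluster intensities fitted with a binding model.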

Row | Sequence | apparent KD of K4 kissing-loop reporter (input ligand: FMN 200 uM) [nM] | apparent KD of K4 kissing-loop reporter (input ligand: arginine 13.2 mM) [nM] | apparent KD of K4 kissing-loop reporter (input ligand: none) [nM] | apparent KD of K4 kissing-loop reporter [1] [nM] | apparent KD of K4 kissing-loop reporter [2] [nM]
1 | CCGAAGAACCAGUGAUGUUGGUUGACUAGACAGGAUAUGAGCAACAUCAGAAGGGUCUGGCUUCGGGAGAGAGUCGCGCUGACCU [Anditebier] | 208 | 350 | 388 | 28.7 | 453
2 | CCGAAGAACCAGUGAUGUUGGUUGACUAGACAGGAUAUGAGCAACAUCAGAAGGGUCUGGCUUCGGGAGUAGGUCGCGCUGACCC [Diarrebi] | 482 | 231 | 624 | 1260 | 231
3 | CCGACUGCAGGAAGGAGCGGCGGUUGGAGUGAUGUUCCGGGUAGUGAUGUUACCAAGAUCCGCCAGGUAGGUCGCCUGUUGCUCG [Same State Arginine B GF11] | 134 | 117 | 129 | 122 | 120
4 | CCGAGCCUGACGAAAGUCAGGCUCUGCGAGCGAGGACCGGUACGGCCGCCACUCGGUGCAGUGAUGUUGCAUGGCCGCAAGGCCG [#2 Exclusion - Tryptophan A Attempt #22 (HarryS)] | 156 | 223 | 240 | 261 | 312
5 | CCGCUGUACUGCAUUAAGUGAUGUUUAGUGCAGGAUAUCUGGAAACAGAGAAGGGCAUGUACUCGACUUAGCCACUACAGCGGUU | 221 | 123 | 142 | 119 | 129
6 | CCUAUCUCAUACGAUACCAGUCAACGAGUGAUGUUCGAAUAAAUAAAUUUGCCAAAUAAUGACCCUUGGCAGCGUAUGGGAUAGG [Ex Theophylline B K4 15] | 299 | 313 | 329 | 302 | 247
7 | CCUAUCUCAUACGAUACCAGUCAAUUAAAUUUUAUAAAUGCCAUCACCGAGUGAUGUUCGGACCCUUGGCAGCGUAUGGGAUAGG [Ex Theophylline B K4 2] | 222 | 175 | 198 | 310 | 187
8 | CCUUCUCUUGAUAGUGAUGUUGUCGAGGACAAGGAUAUCAUCUCAAUGAGAAGGUGUCCUUGAUAACAUGGAGGUCUGAAACAGA [Omei KL FMN A Exc C v10] | 468 | 394 | 333 | 365 | 420
9 | CGAAGAAAGGUAUGUGGGAUCUGCGCGUAACGAGGACCGGUACGGCCGCCACUCGACGUCGCAUACGGCCCAGUGAUGUUGGGUG [theeternabot_sameState_KL_Trp_A_14] | 74 | 55.9 | 75.4 | 74.9 | 53.4
10 | CGAGUGAUGUUCGAAGAGUUGUUGAGCGAUACCAGCCAGGAAACUGGCCCUUGGCAGCGUAAUAAAUAAAUAAAUAAAUGAUCAC [whbob_Ex_Theo_A_th61] | 364 | 464 | 410 | 635 | 333
11 | CGCAAGCAGCCAGUGAUGUUGGCCGCCUUGCGAGGACCGGUACGGCCGCCACUCGAAGGCGGCUACUGAUAAACCGUCUAACGGA [KL-XTryp-A9] | 112 | 96.3 | 105 | 95.4 | 274
12 | CGCAGUGAUGUUGCGAAUAUAAUCACGGAAGGAGCGCGUGAAAACGCAGGUAGGUCGCCGUGUGGUAUGAUGGAAACAUCGUACC [Arginine A K4 12] | 222 | 207 | 243 | 206 | 191
13 | CGCAGUGAUGUUGCGAGUUUAUUCAGGGAAGGAGCGCCACAGAUGGCAGGUAGGUCGCCCACGCAGUGAUGUUGUGUAUUCGGGU [Exclusion Arginine A GF 3] | 141 | 128 | 127 | 128 | 116
14 | CGCAGUGAUGUUGCUUAUAUUCUUGGUUAACGAGGACCGGUACGGCCGCCACUCGAUUUCUAACUAUUCCAGUGUUAAUUUGAGU [JR_ExcTryptoA_Sub006] | 444 | 488 | 502 | 564 | 306
15 | CGCGCCCAGCCGGAUACCAGUGACCCGCUGGGAACCGCGGGCCCAGAGUGAUGUUCGGGACACCCUUGGCAGCCGCCUGGGCGGC [#2 Same State - Theophylline B Attempt #9 (HarryS)] | 1370 | 229 | 999 | 717 | 766
16 | CGCGCGCGCGCGCGCGCGCGCGCGAAUGAUACCAGUAUAUAAGAAUACCCUUGGCAGCAUAAGAAAGAUAUAGUGAUGUUGUAUA [SSTheophA.B] | 285 | 150 | 269 | 422 | 231
17 | CGCGUGGGUUUGAGAGGGUUUGCGCGAAGUGAGGAUAUUUAGGGAGAAAGAAGGCACUAUAAAAUAUAGUGAUGUUAUAUAAGGG [SSFMNA.J] | 877 | 186 | 170 | 242 | 126
18 | CGUACGGUUUCUUUCUUUCCGUACGAGUGCCGAGGACCGGUACGGCCGCCACUCGCUACAGCCUAGUGAUGUUAGGAACGUGUUA | 87.2 | 73.1 | 81.8 | 87.3 | 54.7
19 | CGUUUAGUGAUGUUAAGCGUCCACUACGAUACCAGAACUAUAACCUUCCCUUGGCAGCGUUUAUAUUGUAACUCAUGUGUUAAUU [theeternabot_exclusion_KL_Theo_A_11] | 520 | 296 | 474 | 503 | 468
20 | CGUUUAUAGCAGGAUACCAGUACCCAUAAAGUACGUUAAUAGUAGAGUGAUGUUCUAAAGUACCCUUGGCAGCUUCCAGUGAGUG [ExTheophylB.S] | 102 | 157 | 142 | 165 | 85.3
21 | CGUUUAUAGCAGGAUACCAGUACCCAUAAAGUACGUUAAUAGUAGAGUGAUGUUCUAAAGUACCCUUGGCAGCUUCCCGUGACCC [ExTheophylB.W] | 103 | 160 | 133 | 182 | 79.6
22 | CUCACAGUGAUGUUGUGGGCCGAGAGUGAUACCAGCCGUAUUUGUGGCCCUUGGCAGCGCAAAAGCCGAGUGAUGUUCGAAUCGG [Same State Theophylline A GF 24] | 211 | 196 | 207 | 190 | 192

Row | Sequence | apparent KD of K4 kissing-loop reporter (input ligand: FMN 200 uM) [nM] | apparent KD of K4 kissing-loop reporter (input ligand: arginine 13.2 mM) [nM] | apparent KD of K4 kissing-loop reporter (input ligand: none) [nM] | apparent KD of K4 kissing-loop reporter [1] [nM] | apparent KD of K4 kissing-loop reporter [2] [nM]
23 | CUCGAGUGAUGUUCGAUUAUUUAUACAGAUACCAGUGAAUUUUAACACCCUUGGCAGCUGGUUGUAUCUUUGUAAUUUACACAAG [JR_ExcTheophyA_Sub005] | 120 | 168 | 113 | 151 | 93.6
24 | CUCGUGGGUUUGAGAGGGCUUGUGGGAAGUGAGGAUAUUUAGGGAGAAAGAAGGCACUAUAGAAUAUAGUGAUGUUAUGUAAGGG [SSFMNA.O] | 466 | 954 | 492 | 180 | 348
25 | CUGGGUUGACGAAAAGUCAACAAACGAGAAGGAGCGCACGAAAGUGCAGGUAGGUCGCUCAGUCCAGUGAUGUUGGAACAUCCAG [#SwitchBubble 8 #K4Late] | 664 | 498 | 462 | 508 | 436
26 | CUGGGUUGACGAAAAGUCAACAAACGAGAAGGAGCGCACGAAAGUGCAGGUAGGUCGCUCAGUCCAGUGAUGUUGGAUCAUCCAG [#SwitchBubble 9 #K4Late] | 265 | 763 | 687 | 840 | 323
27 | CUGGGUUGACGAAAAGUCAACAAAUGAGAAGGAGCGCACGAAAGUGCAGGUAGGUCGCUCAAUCCAGUGAUGUUGGGUCAUCCAG [#SwitchBubble 13 #K4Late] | 856 | 612 | 993 | 951 | 731
28 | CUUGUACAUGCCGAGGUAGGUGCGGGUUAGCGAGGACCGGUACGGCCGCCACUCGCCAAGUGAUGUUUGGUCCUUUGGGUCGGCA | 948 | 507 | 562 | 663 | 633
29 | CUUUAUCAACCAGAUACCAGCGGUUCUCUAGUUGGCUUCCGUAGUGAUGUUGCGUGGUCCCGCCCUUGGCAGCUGGCCAUGACUA [theeternabot_sameState_KL_Theo_B_5] | 1060 | 684 | 1170 | 798 | 993
30 | GAACGGCGGGCGGCCGCCACUGGUAUACGAGUGAUGUUCGGAUAUACGUGAUGUAAGGUAAUUAACAGGACCGGGUCAGGGCCGG [whbob_SS_Tryp_B_t20] | 278 | 208 | 239 | 294 | 238
31 | GAAUUAUGUAGAAGGAGCGUUAGAAGGUAUAGGUGCGAGUGAUGUUUGGACUUGUUAAUUUGACAGGUAGGUCGCUACAGAAGGA [KL-SSArg B19 #analogue] | 496 | 281 | 499 | 379 | 451
32 | GAAUUAUGUAGAAGGAGCGUUAGAAGGUAUAGGUGUGAGUGAUGUUCGGAUUUGUUAAUUUGACAGGUAGGUCGCUACAGAAGGA [KL-SSArg B17 #analogue] | 435 | 267 | 242 | 132 | 106
33 | GACAUACCUAUGGAGGGCCGAUCGAUCAUACGAGGACCGGUACGGCCGCCACUCGUGGGCAGUGAUGUUGACCCUGGGAGGUAAG | 316 | 223 | 252 | 232 | 483
34 | GACUCAUGUAGAAGGAGCGUCAGAAGCUACAGACAUGAGUGAUGUUCAUGUUAGUUGAUCUGACAGGUAGGUCGCUACAGCAGGA [KL-SSArg B14 #analogue] | 145 | 121 | 149 | 141 | 150
35 | GAGAGCUCUGGAGGAUAUGAGUCUAGUGAUGUUAGGCGGUCCAUGCGCGUGGCGCGUUAUGCCCUUUUAGAAGGCCAGAGCUCUC [#2 Exclusion - FMN B Attempt #19 (HarryS)] | 98.3 | 69.3 | 99.8 | 113 | 85
36 | GAGAUAGAGGCGGCCGCCACUAGUGAUGUUGGUGAUGUUAGAUAGAGAAUAGAACGGGUACUCCCUAGGACCGGGCCAGAUGGAG [#04 K4 Tryptophan B Exclusion] | 63.8 | 34.9 | 58.5 | 49.4 | 53
37 | GAGCGGUGGAGGUUACCGCUAUUCUGAGAAGGAGCGCAGAUGACUGCAGGUAGGUCGCUUAGAGCUUGCAGUGAUGUUGCAAGUU [Edrirama] | 197 | 177 | 213 | 193 | 213
38 | GAGGGCUCGGGAGGAUAUGAGUCUAGUGAUGUUAGGCGGUCCAUGCGCGUGGCGCGUUAUGCCCUUUUAGAAGGCCCGAGCCCGC [#2 Exclusion - FMN B Attempt #23 (HarryS)] | 109 | 76.4 | 90.5 | 83.3 | 93.8
39 | GAUAUAGUGAUGUUAUAUAAGAAGGAGUUACGAGGACCGGUACGGCCGCCACUCGAAACGAGUGAUGAUUUGGGAGAUUGGGUUG [SSTryptA.O] | 380 | 330 | 350 | 339 | 265
40 | GAUAUAGUGAUGUUAUAUAGGAAGGAGUUACGAGGACCGGUACGGCCGCCACUCGAAACGAGUGAUGAUUUGGGAGAUUGGGUUG [SSTryptA.P] | 364 | 359 | 395 | 430 | 332
41 | GAUCUGAACGAAAGUUCGGAUCAGUCCGAUACCAGUAUGGAUUCAUACCCUUGGCAGCGGAAAUCUGCUAUGGAGUGAUGUUCCU [Theophylline A K4 13] | 362 | 280 | 413 | 396 | 274
42 | GAUUGUGAUGGAAACAUCGCAAUCUCUGAAGGAGCGCGUGAAAACGCAGGUAGGUCGCAGGACGACUAUGACAGUGAUGUUGUCG [Ex Arginine A K4 3] | 189 | 216 | 190 | 207 | 189
43 | GAUUUAGAGGCGGCCGCCACUAGUGAUGUUAGUGAUGUUUGAUACGGAAUAUAUCUGCGAGUAGAUAGGACCGGGCCAGAUGGAG [rttrbmullin] | 207 | 150 | 170 | 184 | 181
